tested on: Escherichia coli TOP10; assay: shrunken log2 fold change of peptide-encoding DNA abundance (4.5 h post-induction vs induction); higher = less antimicrobial activity (less host growth inhibition); conditions: time post-induction: 4.5 h; library: site-saturation at positions 5, 18, 19, 20
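Further: peptides expressed intracellularly from a pBAD plasmid library in pooled LB shake-flask culture, induced with 0.3% L-arabinose, DNA abundance read by NGS, three biological replicates, DESeq2 with apeglm shrinkage.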

| Sequence | shrunken log2 fold change |
| --- | --- |
| RRIRDRPPRLPRPRPRPDPVPRP | 0.203 |
| RRIRERPPRLPRPRPRPNCLPRP | -0.297 |
| RRIRSRPPRLPRPRPRPDHQPRP | -0.263 |
| RRIRSRPPRLPRPRPRPPLLPRP | 0.0398 |
| RRIRWRPPRLPRPRPRPVNFPRP | 0.0606 |
| RRIRWRPPRLPRPRPRPGYVPRP | -0.215 |
| RRIRARPPRLPRPRPRPRNVPRP | 0.0957 |
| RRIRTRPPRLPRPRPRPFHLPRP | -0.0758 |
| RRIRVRPPRLPRPRPRPLCLPRP | -0.376 |
| RRIRDRPPRLPRPRPRPSKTPRP | 0.0521 |
| RRIRWRPPRLPRPRPRPMQGPRP | 0.00185 |
| RRIRPRPPRLPRPRPRPRMVPRP | -0.263 |
| RRIRERPPRLPRPRPRPSIAPRP | -0.259 |
| RRIRKRPPRLPRPRPRPQHQPRP | 0.122 |
| RRIRDRPPRLPRPRPRPAWQPRP | 0.861 |
| RRIRSRPPRLPRPRPRPCTKPRP | -0.581 |
| RRIRERPPRLPRPRPRPYVRPRP | -0.00133 |
| RRIRMRPPRLPRPRPRPYDRPRP | 0.043 |
| RRIRYRPPRLPRPRPRPQRKPRP | -0.263 |
| RRIRYRPPRLPRPRPRPCRTPRP | -0.651 |
| RRIRSRPPRLPRPRPRPRHGPRP | 0.196 |
| RRIRTRPPRLPRPRPRPIKRPRP | -0.0164 |
| RRIRDRPPRLPRPRPRPSEKPRP | -0.0166 |
| RRIRRRPPRLPRPRPRPDQYPRP | -0.126 |
| RRIRCRPPRLPRPRPRPLMAPRP | 0.18 |

| Sequence | shrunken log2 fold change |
| --- | --- |
| RRIRERPPRLPRPRPRPFRMPRP | -0.3 |
| RRIRWRPPRLPRPRPRPYRVPRP | 0.00439 |
| RRIRRRPPRLPRPRPRPTFHPRP | 0.0529 |
| RRIRKRPPRLPRPRPRPVEYPRP | 0.0119 |
| RRIRMRPPRLPRPRPRPAMAPRP | 0.778 |
| RRIRARPPRLPRPRPRPFYWPRP | -0.24 |
| RRIRIRPPRLPRPRPRPGKPPRP | 0.217 |
| RRIRHRPPRLPRPRPRPTGHPRP | 0.173 |
| RRIRDRPPRLPRPRPRPWWDPRP | 0.083 |
| RRIRVRPPRLPRPRPRPTPHPRP | 0.313 |
| RRIRMRPPRLPRPRPRPTLRPRP | 0.334 |
| RRIRRRPPRLPRPRPRPTAFPRP | 1.31 |
| RRIRKRPPRLPRPRPRPSAYPRP | -0.277 |
| RRIRQRPPRLPRPRPRPMDNPRP | -0.367 |
| RRIRCRPPRLPRPRPRPAMHPRP | 0.354 |
| RRIRDRPPRLPRPRPRPPVCPRP | 0.452 |
| RRIRDRPPRLPRPRPRPFINPRP | -0.337 |
| RRIRVRPPRLPRPRPRPGNKPRP | -0.286 |
| RRIRMRPPRLPRPRPRPLTNPRP | 0.0401 |
| RRIRIRPPRLPRPRPRPYPQPRP | -0.974 |
| RRIRRRPPRLPRPRPRPYWTPRP | 0.000827 |
| RRIRSRPPRLPRPRPRPWFMPRP | -0.86 |
| RRIRYRPPRLPRPRPRPPLNPRP | -0.228 |
| RRIRMRPPRLPRPRPRPTWEPRP | 0.312 |
| RRIRVRPPRLPRPRPRPIRRPRP | 0.0517 |

| Sequence | shrunken log2 fold change |
| --- | --- |
| RRIRTRPPRLPRPRPRPAIPPRP | -0.212 |
| RRIRQRPPRLPRPRPRPEQCPRP | -0.0442 |
| RRIRNRPPRLPRPRPRPPWPPRP | 0.387 |
| RRIRFRPPRLPRPRPRPTYEPRP | -0.3 |
| RRIRARPPRLPRPRPRPLDPPRP | 0.244 |
| RRIRDRPPRLPRPRPRPPSMPRP | -0.147 |
| RRIRARPPRLPRPRPRPDAHPRP | 0.876 |
| RRIRPRPPRLPRPRPRPSTSPRP | -0.0506 |
| RRIRVRPPRLPRPRPRPRQFPRP | 0.238 |
| RRIRDRPPRLPRPRPRPCWDPRP | 0.392 |
| RRIRERPPRLPRPRPRPEATPRP | 0.18 |
| RRIRYRPPRLPRPRPRPVIWPRP | -0.262 |
| RRIRTRPPRLPRPRPRPYVAPRP | -0.562 |
| RRIRCRPPRLPRPRPRPFANPRP | -0.29 |
| RRIRSRPPRLPRPRPRPFLDPRP | -0.149 |
| RRIRMRPPRLPRPRPRPQKWPRP | -0.00664 |
| RRIRKRPPRLPRPRPRPYNQPRP | -0.312 |
| RRIRHRPPRLPRPRPRPSWNPRP | -0.264 |
| RRIRPRPPRLPRPRPRPLNGPRP | -0.0765 |
| RRIRHRPPRLPRPRPRPFEVPRP | -0.172 |
| RRIRIRPPRLPRPRPRPMYHPRP | -0.839 |
| RRIRSRPPRLPRPRPRPSFKPRP | -0.542 |
| RRIRLRPPRLPRPRPRPEHTPRP | 0.0956 |
| RRIRNRPPRLPRPRPRPDFMPRP | -0.138 |
| RRIRARPPRLPRPRPRPQEDPRP | 0.124 |
